Experimental data published in IntAct's records for PubMed 25613572.

B1: Chromo domain-containing protein rhino (Drosophila melanogaster (Fruit fly)), Q7JXA8 (parent)
chain: MSRNHQRPNLGLVDAPPNDHVEEYVVEKILGKRFVNGRPQVLVKWSGFPNENNTWEPLENVGNCMKLVSDFESEVFRLHRKAAAKSVGKSKSSPSSSGPLITENGPSSSKKTQQHSKSVQAKNTAGMSKMNQKKGKNIKKTAGKIKDIENYPKTQMPSTSQVSTDSTEVFDGNPSATTTNMIKSPRIQSLFSDLNLIEPTKDKDVGDTSLKTPPKSRRLIEFPQREDAPLSSKHVSPMLIRKESQPLQSSCTDDSDLGESSSSMSLPTVSSTSSEKSIKVTKSEPKTLGQIKFSSRSSDGGHAASSLGAPKEGDIGLDLSGSDSMDSEVESMRRCPRRKRKKTYPDWKFPEMTKPFGVNRGLDLDKILHCYQMNDDLFMFVTWKGCSSIDAVHINDIKEAYPLQIIKYFESLRIIVPK

Variants of: B1
Details: with h31_human H3C1, P68431

| Variant | effect of a mutation on the interaction |
| --- | --- |
| F48A | disrupting interaction |
| F34A;F76A | decreasing interaction strength |
| W45A | disrupting interaction |
